Our source for the IC50 values is the Immune Epitope Database (IEDB).

The target in assay [1] is HLA-A*02:06. As to the kind of experiment: IEDB peptide-MHC binding, cellular MHC/competitive/fluorescence; ≥ and ≤ were set here for values at or beyond the usual limits of such assays.
Assay [2] deals with HLA-A*02:01. Described as above.
In assay [3] the target is HLA-A*68:02. As to the kind of experiment: IEDB peptide-MHC binding, purified MHC/competitive/radioactivity; ≥ and ≤ were set here for values at or beyond the usual limits of such assays.
The target of assay [4] is HLA-A*02:03. The description is as above.
The target of assay [5] is HLA-A*02:02. Described as above.
[6] abbreviates: source organism: Vaccinia virus WR.
[7] abbreviates: source organism: Influenza A virus.
Setting [8] is: source organism: Mammarenavirus whitewaterense.
[9] abbreviates: source organism: Mammarenavirus lassaense.
Setting [10] is: source organism: Mammarenavirus choriomeningitidis.
[11] abbreviates: source organism: Mammarenavirus brazilense.

A value given as a limit tells only on which side of the number the result lay.

As for IVSLCPTKKL, the IC50 came to 28500 nM in assay [1] (setting [6]); 9970 nM in assay [2] (setting [6]); 520 nM in assay [3] (setting [6]); 29 nM in assay [4] (setting [6]); 9.5 nM in assay [5] (setting [6]).

Turning to IVSSYVCSGL, the IC50 in assay [1] (setting [7]) amounted to 12700 nM; in assay [2] (setting [7]), 6200 nM; in assay [3] (setting [7]) it was 767 nM; in assay [4] (setting [7]), 795 nM; in assay [5] (setting [7]), 161 nM.

For KTVAGSFAS, the IC50 worked out at 9140 nM in assay [1] (setting [8]); 5560 nM in assay [2] (setting [8]); 2990 nM in assay [3] (setting [8]); 3820 nM in assay [4] (setting [8]); 1600 nM in assay [5] (setting [8]).

Regarding KVYNGIFVDT, the IC50 in assay [1] (setting [6]) worked out at 16400 nM; in assay [2] (setting [6]), 11800 nM; in assay [3] (setting [6]), 1380 nM; in assay [4] (setting [6]) it was 1440 nM; in assay [5] (setting [6]), 111 nM.

Turning to LAEHISDSI, the IC50 in assay [1] (setting [6]) turned out to be 19300 nM; in assay [2] (setting [6]) it was 6050 nM; in assay [3] (setting [6]), 428 nM; in assay [4] (setting [6]), 731 nM; in assay [5] (setting [6]) it was 45 nM.

For the sequence LINLVQYRI, the IC50 in assay [1] (setting [6]) is 5340 nM; in assay [2] (setting [6]) it was 5900 nM; in assay [3] (setting [6]), 1730 nM; in assay [4] (setting [6]), 583 nM; in assay [5] (setting [6]), 311 nM.

As to LNQAVNNLV, the IC50 in assay [1] (setting [9]) was determined as 13600 nM; in assay [2] (setting [9]), 7960 nM; in assay [3] (setting [9]), 4880 nM; in assay [4] (setting [9]), 3350 nM; in assay [5] (setting [9]) it was 511 nM.

Take LNQTVYSLV: the IC50 in assay [1] (setting [10]) worked out at 5100 nM; in assay [2] (setting [10]), 9250 nM; in assay [3] (setting [10]), 262 nM; in assay [4] (setting [10]) it was 1510 nM; in assay [5] (setting [10]), 3330 nM.

Regarding LRYFIMAYV, the IC50 in assay [1] (setting [11]) worked out at 20100 nM; in assay [2] (setting [11]) it was 12700 nM; in assay [3] (setting [11]), 18 nM; in assay [4] (setting [11]), 396 nM; in assay [5] (setting [11]) it was 213 nM.

As to MLHNPTSET, the IC50 in assay [1] (setting [6]) is at least 70000 nM; in assay [2] (setting [6]), 13700 nM; in assay [3] (setting [6]) it was 1570 nM; in assay [4] (setting [6]), 184 nM; in assay [5] (setting [6]), 4210 nM.

As for MTSTRTIIL, the IC50 in assay [1] (setting [6]) is 6790 nM; in assay [2] (setting [6]) it was 6470 nM; in assay [3] (setting [6]), 507 nM; in assay [4] (setting [6]), 840 nM; in assay [5] (setting [6]), 1340 nM.

For the sequence NASKTINAL, the IC50 stood at 6110 nM in assay [1] (setting [6]); 26800 nM in assay [2] (setting [6]); 52 nM in assay [3] (setting [6]); 708 nM in assay [4] (setting [6]); 117 nM in assay [5] (setting [6]).

Consider RVKQWVMDT, for which the IC50 in assay [1] (setting [6]) was determined as 13500 nM; in assay [2] (setting [6]), 20300 nM; in assay [3] (setting [6]), 603 nM; in assay [4] (setting [6]) it was 3.6 nM; in assay [5] (setting [6]), 3630 nM.

As to RVKQWVMDTL, the IC50 in assay [1] (setting [6]) was 27800 nM; in assay [2] (setting [6]), 21400 nM; in assay [3] (setting [6]), 155 nM; in assay [4] (setting [6]), 689 nM; in assay [5] (setting [6]), 3480 nM.

Consider RVNDLNRMPT, for which the IC50 in assay [1] (setting [6]) was found to be 7720 nM; in assay [2] (setting [6]), 7200 nM; in assay [3] (setting [6]) it was 631 nM; in assay [4] (setting [6]), 1440 nM; in assay [5] (setting [6]) it was 1360 nM.

As for TLFIDRGSI, the IC50 in assay [1] (setting [6]) was at least 70000 nM; in assay [2] (setting [6]) it was 17700 nM; in assay [3] (setting [6]), 181 nM; in assay [4] (setting [6]), 802 nM; in assay [5] (setting [6]) it was 2100 nM.

On to TMKAIEKDRL, for which the IC50 in assay [1] (setting [6]) was at least 70000 nM; in assay [2] (setting [6]) it was 17500 nM; in assay [3] (setting [6]), 1570 nM; in assay [4] (setting [6]), 1060 nM; in assay [5] (setting [6]), 171 nM.

Take VISTIANSNI: the IC50 in assay [1] (setting [6]) was determined as 5160 nM; in assay [2] (setting [6]), 7800 nM; in assay [3] (setting [6]), 788 nM; in assay [4] (setting [6]), 845 nM; in assay [5] (setting [6]) it was 282 nM.

For VTSPLTGNNT, the IC50 in assay [1] (setting [6]) was 5130 nM; in assay [2] (setting [6]) it was 39500 nM; in assay [3] (setting [6]), 510 nM; in assay [4] (setting [6]), 2500 nM; in assay [5] (setting [6]), 1450 nM.

Turning to YCSNIKLQVV, the IC50 in assay [1] (setting [9]) worked out at 7130 nM; in assay [2] (setting [9]) it was 8600 nM; in assay [3] (setting [9]), 1170 nM; in assay [4] (setting [9]), 802 nM; in assay [5] (setting [9]), 1240 nM.
